Common to all, as to conditions: tags: R&D Systems 3050-AV
Series [1] deals with T1, Integrin alpha-v beta-3 (UniProt P06756;P05106 P06756:31-992,P05106:27-718). The series can be described thus: filter; Bmax 0.82; HEPES, NaCl, KCl, MgCl2 buffer, 37 C. Here is the method:
(§1) 20,000 cpm of the labeled DNA pool were put in 100 μL 1×SB buffer (200 mM HEPES, 510 mM NaCl, 25 mM KCl, 25 mM MgCl₂), and slowly cooled from 95° C. to 37° C. at a rate of 0.1° C./sec. And, integrin αᵥβ₃ (R&D systems, 3050-AV) was serially diluted to 12 points at 100 nM using buffer (200 mM HEPES, 510 mM NaCl, 25 mM KCl, 25 mM MgCl₂), and then, 30 μL of the above heated and cooled DNA pool was respectively added and reacted at 37° C. for 30 minutes. A nylon membrane (GE healthcare) was spotted with 2 μL of the complex of DNA and integrin αᵥβ₃, and then, 5.5 μL of zorbax resin (Agilent) was added thereto. And, it was put in a Durapore filter (Millipore) previously wetted with 50 μL of 1×SB buffer (200 mM HEPES, 510 mM NaCl, 25 mM KCl, 25 mM MgCl₂) and vacuum was applied. And, the membrane filter was washed with 100 μL of 1× selection buffer (200 mM HEPES, 510 mM NaCl, 25 mM KCl, 25 mM MgCl₂). The filter plate was exposed to an image plate overnight, and then, images were quantified with FLA-5100 (Fuji).
(§2) In order to examine binding affinity of clone having repeatedly observed base sequence, filter binding assay was conducted by the same method as pool binding assay. The binding affinity was calculated using SigmaPlot 11 (Systat Software Inc.) from the value obtained through the filter binding assay, and the results are shown in the following Table 4. […]

Series [2] deals with T1, Integrin alpha-v beta-3. The series is described as follows: filter; Bmax 0.88; HEPES, NaCl, KCl, MgCl2 buffer, 37 C. Here is the method: as §1, §2
Series [3] concerns the target T1, Integrin alpha-v beta-3. The series can be described thus: filter; Bmax 0.69; HEPES, NaCl, KCl, MgCl2 buffer, 37 C. Here is the method:
as §1, §2

For series [4], the target named is T1, Integrin alpha-v beta-3. The series is described as follows: filter; Bmax 0.56; HEPES, NaCl, KCl, MgCl2 buffer, 37 C. Here is the method:
as §1, §2

The text below walks through data of patent US20150359911, “Aptamer Specific to Integrin alpha-v-beta-3 and Use Thereof” (POSTECH ACADEMY-INDUSTRY FOUNDATION, published 2015).

T1 sequence (P06756 31-992, chain 1 of 2): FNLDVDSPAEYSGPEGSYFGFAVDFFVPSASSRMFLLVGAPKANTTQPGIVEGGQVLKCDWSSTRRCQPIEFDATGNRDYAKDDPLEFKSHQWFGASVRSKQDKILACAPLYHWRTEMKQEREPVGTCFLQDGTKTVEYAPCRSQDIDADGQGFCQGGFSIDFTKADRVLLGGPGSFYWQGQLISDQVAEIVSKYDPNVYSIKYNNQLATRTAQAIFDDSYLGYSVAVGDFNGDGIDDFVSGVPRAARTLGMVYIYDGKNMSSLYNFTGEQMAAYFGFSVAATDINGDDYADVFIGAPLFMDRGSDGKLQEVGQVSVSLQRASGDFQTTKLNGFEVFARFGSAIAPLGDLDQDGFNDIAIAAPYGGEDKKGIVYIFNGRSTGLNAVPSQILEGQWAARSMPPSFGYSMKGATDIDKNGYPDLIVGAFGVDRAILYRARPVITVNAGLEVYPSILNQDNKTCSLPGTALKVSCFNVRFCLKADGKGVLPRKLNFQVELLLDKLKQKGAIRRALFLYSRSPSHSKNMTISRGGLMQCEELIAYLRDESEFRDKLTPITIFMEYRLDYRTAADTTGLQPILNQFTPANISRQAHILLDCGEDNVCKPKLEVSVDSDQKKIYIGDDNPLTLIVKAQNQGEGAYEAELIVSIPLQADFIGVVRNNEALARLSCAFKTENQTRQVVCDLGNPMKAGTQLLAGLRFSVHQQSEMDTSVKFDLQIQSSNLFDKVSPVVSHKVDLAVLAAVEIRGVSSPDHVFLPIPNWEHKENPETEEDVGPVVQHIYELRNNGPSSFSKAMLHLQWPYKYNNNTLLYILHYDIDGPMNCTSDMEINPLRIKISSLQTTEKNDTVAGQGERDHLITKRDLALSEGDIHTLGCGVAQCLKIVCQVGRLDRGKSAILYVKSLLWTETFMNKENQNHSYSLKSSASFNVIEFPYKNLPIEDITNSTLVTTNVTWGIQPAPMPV
T1 sequence (P05106 27-718, chain 2 of 2): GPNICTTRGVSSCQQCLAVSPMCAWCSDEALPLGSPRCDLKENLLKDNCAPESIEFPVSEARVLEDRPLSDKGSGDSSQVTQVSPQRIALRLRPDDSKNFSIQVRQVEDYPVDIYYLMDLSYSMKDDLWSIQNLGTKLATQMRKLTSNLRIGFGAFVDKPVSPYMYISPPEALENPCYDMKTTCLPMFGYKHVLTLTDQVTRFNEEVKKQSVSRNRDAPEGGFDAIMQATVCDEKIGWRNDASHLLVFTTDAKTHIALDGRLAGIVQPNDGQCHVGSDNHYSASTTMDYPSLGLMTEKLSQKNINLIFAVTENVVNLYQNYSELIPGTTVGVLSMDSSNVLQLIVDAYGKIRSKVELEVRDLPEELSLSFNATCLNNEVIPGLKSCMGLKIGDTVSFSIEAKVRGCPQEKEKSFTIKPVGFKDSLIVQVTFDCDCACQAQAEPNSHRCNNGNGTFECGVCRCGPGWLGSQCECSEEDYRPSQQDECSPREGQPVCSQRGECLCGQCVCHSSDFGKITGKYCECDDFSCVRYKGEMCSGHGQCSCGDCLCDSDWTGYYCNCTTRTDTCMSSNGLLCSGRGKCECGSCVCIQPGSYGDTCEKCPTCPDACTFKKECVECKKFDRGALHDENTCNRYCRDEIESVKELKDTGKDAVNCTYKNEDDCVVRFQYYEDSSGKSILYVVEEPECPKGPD

B1: Clone #25 (S003-A4-025-T7_A04), full length (ssDNA)
DNA: TCAGCCGCCAGCCAGTTCGTTTTAAGAAATTAGCACACCGTTGACTTGTTTAGTGGCGGACCAGAGCACCACAGAG
modifications: n in core = 5-(N-benzylaminocarbonyl)-2'-deoxyuridine (BzdU) [n positions 20,21,22,23,30,31,41,42,46,47,49,50,51,54 = modified dU]
A word on the Kd: it is the concentration at which binding is half-saturated. A high value points to a looser complex. Take B1: the Kd in the series with Integrin alpha-v beta-3 [1] is 17.6 nM.

B2: Clone #21 (S003-A4-021-T7_E03), full length (ssDNA)
DNA: TCAGCCGCCAGCCAGTTCCGAGGGAGTTATGGAGATTGTGTTGTTTAAGGTCGGAACTGACCAGAGCACCACAGAG
modifications: n in core = 5-(N-benzylaminocarbonyl)-2'-deoxyuridine (BzdU) [n positions 27,28,30,36,37,39,41,42,44,45,46,51,58 = modified dU]
The molecule B2 gave a dissociation constant (Kd) with Integrin alpha-v beta-3 [2] of 59 nM.

B3: Clone #12 (S003-A4-012-T7_D02), full length (ssDNA)
DNA: TCAGCCGCCAGCCAGTTCAGTTGCCAATTTGCAGCCTAGGATACGTTTTCGAAACTGCAGACCAGAGCACCACAGAG
modifications: n in core = 5-(N-benzylaminocarbonyl)-2'-deoxyuridine (BzdU) [n positions 21,22,28,29,30,37,42,46,47,48,49,56 = modified dU]
As for B3, binding in the series with Integrin alpha-v beta-3 [3] was characterised by a dissociation constant (Kd) of 23.2 nM.

B4: Clone #11 (S003-A4-011-T7_C02), full length (ssDNA)
DNA: TCAGCCGCCAGCCAGTTCTTTTAATCTTCTCTGTCAGATGGCTGGTAGGGTGTATGACGACCAGAGCACCACAGAG
modifications: n in core = 5-(N-benzylaminocarbonyl)-2'-deoxyuridine (BzdU) [n positions 19,20,21,22,25,27,28,30,32,34,39,43,46,51,53,55 = modified dU]
Consider B4, for which the Kd with Integrin alpha-v beta-3 [4] is 38 nM.
